{
  "source": "patent US20240190983A1",
  "about": "(JULIUS MAXIMILIANS UNIVERSIT T W RZBURG, published 2024)",
  "binders": {"B1": {"name": "C4-Fab1 (Fab)", "light": "MNFGFSLIFLVLVLKGVQCEVKLVPRQLDYKDDDDKELDIVMTQSHKFMSTSVGDRVSITCKASQDVDTAVAWYQQKPGQSPKLLIYWASTRHTGVPDRFTGSGSGTDYTLTISSVQAEDLARYYCQQYYSVPPTFGGGTKLGSEIKRTVAAPSVFIFPPSDEQLKSGTASVVCLLNNFYPREAKVQWKVDNALQSGNSQESVTEQDSKDSTYSLSSTLTLSKADYEKHKVYACEVTHQGLSSPVTKSFNRGEC", "heavy": "MNFGFSLIFLVLVLKGVQCEVKLVPRQLDYKDDDDKELQVQLLQSGPELVKPGASVKLSCKASGYSFTSYDINWVKQRPGQGLEWVGWIYPRDGDTKYNEKFKGKAILTVDTSSNTAYMNLHSLTSEDSAVYFCARLTGPYWYFDVWGTGTTVTVSSGSSSASTKGPSVFPLAPSSKSTSGGTAALGCLVKDYFPEPVTVSWNSGALTSGVHTFPAVLQSSGLYSLSSVVTVPSSSLGTQTYICNVNHKPSNTKVDKKVEPKSCDKTHT"}, "B2": {"name": "C4-IgG1(N297A)-HC:TNC (antibody)", "light": "B1 light", "heavy": "not shown"}, "B3": {"name": "C4-IgG1(N297A) (antibody)", "light": "B1 light", "heavy": "not shown"}, "B4": {"name": "C4-Fab1-LC:scFvC4 (antibody)", "light": "MNFGFSLIFLVLVLKGVQCEVKLVPRQLDYKDDDDKELDIVMTQSHKFMSTSVGDRVSITCKASQDVDTAVAWYQQKPGQSPKLLIYWASTRHTGVPDRFTGSGSGTDYTLTISSVQAEDLARYYCQQYYSVPPTFGGGTKLGSEIKRTVAAPSVFIFPPSDEQLKSGTASVVCLLNNFYPREAKVQWKVDNALQSGNSQESVTEQDSKDSTYSLSSTLTLSKADYEKHKVYACEVTHQGLSSPVTKSFNRGECLEQVQLLQSGPELVKPGASVKLSCKASGYSFTSYDINWVKQRPGQGLEWVGWIYPRDGDTKYNEKFKGKAILTVDTSSNTAYMNLHSLTSEDSAVYFCARLTGPYWYFDVWGTGTTVTVSSRSSTKGPKLEEGEFSEAQLDIVMTQSHKFMSTSVGDRVSITCKASQDVDTAVAWYQQKPGQSPKLLIYWASTRHTGVPDRFTGSGSGTDYTLTISSVQAEDLARYYCQQYYSVPPTFGGGTKLEIK", "heavy": "B1 heavy"}, "B5": {"name": "C4-Fab2 (antibody)", "light": "B1 light", "heavy": "MNFGFSLIFLVLVLKGVQCEVKLVPRQLQVQLLQSGPELVKPGASVKLSCKASGYSFTSYDINWVKQRPGQGLEWVGWIYPRDGDTKYNEKFKGKAILTVDTSSNTAYMNLHSLTSEDSAVYFCARLTGPYWYFDVWGTGTTVTVSSGSSSASTKGPSVFPLAPSSKSTSGGTAALGCLVKDYFPEPVTVSWNSGALTSGVHTFPAVLQSSGLYSLSSVVTVPSSSLGTQTYICNVNHKPSNTKVDKKVEPKSCDKTHTCPPCPA"}, "B6": {"name": "C4-Fab2-LC:scFvC4 (antibody)", "light": "B4 light", "heavy": "B5 heavy"}, "B7": {"name": "C4(scFv)-IgG1(N297A) (antibody)", "light": "MNFGFSLIFLVLVLKGVQCEVKLVPRQLDYKDDDDKEFQVQLLQSGPELVKPGASVKLSCKASGYSFTSYDINWVKQRPGQGLEWVGWIYPRDGDTKYNEKFKGKAILTVDTSSNTAYMNLHSLTSEDSAVYFCARLTGPYWYFDVWGTGTTVTVSSRSSTKGPKLEEGEFSEAQLDIVMTQSHKFMSTSVGDRVSITCKASQDVDTAVAWYQQKPGQSPKLLIYWASTRHTGVPDRFTGSGSGTDYTLTISSVQAEDLARYYCQQYYSVPPTFGGGTKLEIKGSEIKRTVAAPSVFIFPPSDEQLKSGTASVVCLLNNFYPREAKVQWKVDNALQSGNSQESVTEQDSKDSTYSLSSTLTLSKADYEKHKVYACEVTHQGLSSPVTKSFNRGEC", "heavy": "not shown"}, "B8": {"name": "C4(scFv)-IgG1(N297A)-HC:TNC (antibody)", "light": "B7 light", "heavy": "not shown"}, "B9": {"name": "C31-2-IgG1(N297A)-LC:GpL (antibody)", "light": "EVKLVPRQLDYKDDDDKELQAVVTQESALTTSPGETVTLTCRSSTGAVTTSNYANWVQEKPDHLFTGLIGGTNNRAPGVPARFSGSVIGDKAALTITGAQTEDEAIYFCALWYSNHWVFGGGTKLTVLGGSEIKRTVAAPSVFIFPPSDEQLKSGTASVVCLLNNFYPREAKVQWKVDNALQSGNSQESVTEQDSKDSTYSLSSTLTLSKADYEKHKVYACEVTHQGLSSPVTKSFNRGECLEKPTENNEDFNIVAVASNFATTDLDADRGKLPGKKLPLEVLKEMEANARKAGCTRGCLICLSHIKCTPKMKKFIPGRCHTYEGDKESAQGGIGEAIVDIPEIPGFKDLEPMEQFIAQVDLCVDCTTGCLKGLANVQCSDLLKKWLPQRCATFASKIQGQVDKIKGAGGD", "heavy": "not shown", "notes": "copies: 2 + 2"}, "B10": {"name": "C29-IgG1(N297A)-LC:GpL (antibody)", "light": "EVKLVPRQLDYKDDDDKELDVVMTQTPLSLPVSLGDQASISCRASQSLVHSNGNTYLQWYLQKPGQSPKLLIYKVSNRFSGVPDRFSGSGSGTDFTLKISRVEAEDLGVFFCSQSTHVPFTFGSGTKLEIKGSEIKRTVAAPSVFIFPPSDEQLKSGTASVVCLLNNFYPREAKVQWKVDNALQSGNSQESVTEQDSKDSTYSLSSTLTLSKADYEKHKVYACEVTHQGLSSPVTKSFNRGECLEKPTENNEDFNIVAVASNFATTDLDADRGKLPGKKLPLEVLKEMEANARKAGCTRGCLICLSHIKCTPKMKKFIPGRCHTYEGDKESAQGGIGEAIVDIPEIPGFKDLEPMEQFIAQVDLCVDCTTGCLKGLANVQCSDLLKKWLPQRCATFASKIQGQVDKIKGAGGD", "heavy": "not shown", "notes": "copies: 2 + 2"}, "B11": {"name": "(68/69)-IgG1(N297A)-LC:GpL (antibody)", "light": "EVKLVPRQLDYKDDDDKELDVQMTQSPSSLSASVGDRVTITCKASQDINKFIAWYQQKPGKAPKLLIHYTSTLQPGIPSRFSGSGSGRDYTFTISSLQPEDIATYYCLQYGNLWTFGGGTKVEIKGSEIKRTVAAPSVFIFPPSDEQLKSGTASVVCLLNNFYPREAKVQWKVDNALQSGNSQESVTEQDSKDSTYSLSSTLTLSKADYEKHKVYACEVTHQGLSSPVTKSFNRGECLEKPTENNEDFNIVAVASNFATTDLDADRGKLPGKKLPLEVLKEMEANARKAGCTRGCLICLSHIKCTPKMKKFIPGRCHTYEGDKESAQGGIGEAIVDIPEIPGFKDLEPMEQFIAQVDLCVDCTTGCLKGLANVQCSDLLKKWLPQRCATFASKIQGQVDKIKGAGGD", "heavy": "not shown", "notes": "Gaussia princeps luciferase (GpL) fused to the light chain; copies: 2 + 2"}},
  "data": [
    {"target": "T1, Human TNFR2 (human, UniProt P20333 23-461)", "T1 sequence": "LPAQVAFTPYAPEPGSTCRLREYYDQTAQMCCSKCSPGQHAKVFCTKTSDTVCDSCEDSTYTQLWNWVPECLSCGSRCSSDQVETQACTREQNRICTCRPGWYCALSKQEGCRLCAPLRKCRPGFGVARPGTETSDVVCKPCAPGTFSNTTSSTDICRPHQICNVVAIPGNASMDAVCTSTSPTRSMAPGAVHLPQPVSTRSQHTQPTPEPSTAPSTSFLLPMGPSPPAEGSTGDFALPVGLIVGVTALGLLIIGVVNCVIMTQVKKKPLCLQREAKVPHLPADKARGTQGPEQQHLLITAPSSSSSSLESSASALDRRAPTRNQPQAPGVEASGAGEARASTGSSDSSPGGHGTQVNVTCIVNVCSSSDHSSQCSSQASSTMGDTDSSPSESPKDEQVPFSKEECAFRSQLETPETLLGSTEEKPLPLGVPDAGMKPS", "experiment": "cell-based or functional assay", "units": {"Activity I (IL8)": "ng/mL", "Activity II (tox)": "ng/mL"}, "values": [
      {"binder": "B1", "Activity I (IL8)": 0, "Activity II (tox)": 0},
      {"binder": "B2", "Activity I (IL8)": 100},
      {"binder": "B3", "Activity I (IL8)": 0, "Activity II (tox)": 0},
      {"binder": "B4", "Activity I (IL8)": 10, "Activity II (tox)": 20},
      {"binder": "B5", "Activity I (IL8)": 0, "Activity II (tox)": 0},
      {"binder": "B6", "Activity I (IL8)": 50},
      {"binder": "B7", "Activity II (tox)": 20},
      {"binder": "B8", "Activity II (tox)": 10}
    ]},
    {"target": "T1, Human TNFR2", "experiment": "equilibrium binding of the GpL fusion protein to HeLa-TNFR2 cells, 37 °C; unspecific binding on HeLa cells subtracted; cell-bound luciferase", "protocol": "FIG. 11—Binding properties of TNFR2-specific antibodies. (A) Equilibrium binding of the indicated anti-TNFR2 antibody GpL fusion proteins to cell expressed human TNFR2 at 37° C. (B) HeLa-TNFR2 cells were pretreated with the indicated amounts of anti-TNFR2 antibodies or remained untreated. […] Binding of the various constructs to untransfected HeLa cells was analyzed to obtain unspecific binding values.\nAffinity of TNFR2-specific antibodies and antibody variants were also evaluated with HeLa cells and HeLa cells stably expressing human TNFR2. HeLa and HeLa-TNFR2 cells were seeded out in 24-well plates. Next day, the cells were challenged with the indicated concentrations of GpL-labelled TNFR2 antibodies for 1 hour at 37° C. To eliminate the unbound antibodies, the cells were washed 10 times with ice-cold PBS. The cells were then scratched and collected in 50 μl of medium (RPMI, 0.5% FCS) and transferred to black 96-well plates for measurement as mentioned above. The specific binding of different TNFR2-specific antibodies/antibody variants was calculated by subtracting the unspecific binding (values obtained from HeLa cells) from total binding (obtained from HeLa-TNFR2). The resulting values were fitted using the non-linear regression analysis option of GraphPad Prism 5.", "units": {"Bmax": "kRLU", "Kd": "µg/mL"}, "values": [
      {"binder": "B9", "Bmax": 890, "Kd": 2.19},
      {"binder": "B10", "Bmax": 250, "Kd": 0.8},
      {"binder": "B11", "Bmax": 1130, "Kd": 0.044}
    ]}
  ]
}
